How the values were obtained:
[1] = tested on: synthetic peptide HK2p01 (SRFKVWWAAG)
[2] = tested on: synthetic peptide HK2p02 (AARRPFPAPS)
[3] = tested on: synthetic peptide HK2p03 (PARRPFPVTA)
[4] = tested on: synthetic peptide HK2p04 (CFRQGCWVIT)
[5] = tested on: synthetic peptide HK2p06 (CYRMPTCMQRD)

Chain of plasma kallikrein (chain, as listed by the source): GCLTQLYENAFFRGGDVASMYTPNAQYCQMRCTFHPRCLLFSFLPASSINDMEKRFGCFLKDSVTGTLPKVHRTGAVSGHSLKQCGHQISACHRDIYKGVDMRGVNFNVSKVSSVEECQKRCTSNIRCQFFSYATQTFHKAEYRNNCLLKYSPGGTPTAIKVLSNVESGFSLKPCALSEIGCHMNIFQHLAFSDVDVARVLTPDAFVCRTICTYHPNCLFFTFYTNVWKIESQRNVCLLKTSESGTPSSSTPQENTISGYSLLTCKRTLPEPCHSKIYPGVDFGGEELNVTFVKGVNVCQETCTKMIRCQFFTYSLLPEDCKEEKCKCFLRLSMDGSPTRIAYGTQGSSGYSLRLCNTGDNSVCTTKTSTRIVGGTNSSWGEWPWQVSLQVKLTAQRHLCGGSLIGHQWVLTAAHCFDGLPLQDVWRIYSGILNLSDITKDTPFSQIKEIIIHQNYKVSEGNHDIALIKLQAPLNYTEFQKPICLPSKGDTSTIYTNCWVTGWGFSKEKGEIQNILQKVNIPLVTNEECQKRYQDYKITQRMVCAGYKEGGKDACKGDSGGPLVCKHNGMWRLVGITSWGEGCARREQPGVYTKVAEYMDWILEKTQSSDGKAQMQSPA

Substance	enzyme activity (chromogenic substrate) [1]	enzyme activity (chromogenic substrate) [2]	enzyme activity (chromogenic substrate) [3]	enzyme activity of hK2 (chromogenic substrate S-2302) [1]	enzyme activity of hK2 (chromogenic substrate S-2302) [2]	enzyme activity of hK2 (chromogenic substrate S-2302) [3]	enzyme activity of hK2 (chromogenic substrate S-2302) [4]	enzyme activity of hK2 (chromogenic substrate S-2302) [5]
thrombin	showed no inhibition	showed no inhibition	showed no inhibition					
prostate specific antigen	showed no inhibition	showed no inhibition	showed no inhibition					
recombinant wild-type (wt) human kallikrein 2				caused a significant reduction of the enzyme activity	caused a significant reduction of the enzyme activity	caused a significant reduction of the enzyme activity	did not show any effect on the enzyme activity of hK2	did not show any effect on the enzyme activity of hK2
α-chymotrypsin	showed no inhibition	showed no inhibition	showed no inhibition					
urokinase	showed no inhibition	showed no inhibition	showed no inhibition					
plasma kallikrein	showed no inhibition	showed no inhibition	showed no inhibition					

From patent US20090214427
